The target of assay [1] is T1, holo-APC (Anaphase Promoting Complex / cyclosome) from HeLa cells (human, UniProt Q9H1A4 1-1944; Q9UJX6 1-822; P30260 1-824; Q9UJX5 1-808; Q9UJX4 1-755; Q13042 …).
T1 construct: Native multisubunit complex with 11 known subunits; It carries substoichiometric amounts of endogenous CDH1; also called immunopurified APC; APC-IPs
In words: peptide matrix pull-down from APC-containing fractions, western blot. (In western blotting, separated proteins are transferred to a membrane and probed.)

In assay [2] the target is T2, recombinant HisHA-tagged APC3 (human, UniProt P30260 1-824).
T2 construct: Expressed from baculovirus in Sf9 or Hi5 cells and used as insect cell lysate; also called APC3/CDC27; not shown: HisHA tag
The assay is described as follows: peptide matrix pull-down from insect cell lysate, western blot.

Assay [3] deals with T3, APC7 C-terminal part (amino acids 298 to 565) comprising the block of TPRs (human, UniProt Q9UJX3 298-565, limits assumed).
T3 construct: Recombinantly expressed fragment; also called APC7 TPR domain; APC7 C-terminal fragment
The assay is described as follows: peptide binding assay with recombinant APC7 fragments.

The target of assay [4] is T4, recombinant HisHA-tagged APC5 (UniProt Q9UJX4 1-755).
T4 construct: Expressed from baculovirus and used as insect cell lysate; not shown: HisHA tag
In words: peptide matrix pull-down from insect cell lysate, western blot.

For assay [5], the target named is T5, recombinant HisHA-tagged APC8 (UniProt Q9UJX2 1-597).
T5 construct: Expressed from baculovirus and used as insect cell lysate; also called APC8/CDC23; not shown: HisHA tag
The description is as above.

For assay [6], the target named is T6, APC7 fragment containing the N-terminal 297 amino acids (human, UniProt Q9UJX3 1-297, limits assumed).
T6 construct: Recombinantly expressed fragment; also called APC7 N-terminal fragment
In words: peptide binding assay with recombinant APC7 fragments.

For assay [7], the target named is T7, native CDC26 from late-eluting Q column fractions of HeLa extract (human, UniProt Q8NHZ8 1-85).
T7 construct: Endogenous protein in anion exchange fractions
In words: peptide matrix pull-down from late-eluting Q column fractions, western blot.

T3 sequence (Q9UJX3 298-565 limits assumed): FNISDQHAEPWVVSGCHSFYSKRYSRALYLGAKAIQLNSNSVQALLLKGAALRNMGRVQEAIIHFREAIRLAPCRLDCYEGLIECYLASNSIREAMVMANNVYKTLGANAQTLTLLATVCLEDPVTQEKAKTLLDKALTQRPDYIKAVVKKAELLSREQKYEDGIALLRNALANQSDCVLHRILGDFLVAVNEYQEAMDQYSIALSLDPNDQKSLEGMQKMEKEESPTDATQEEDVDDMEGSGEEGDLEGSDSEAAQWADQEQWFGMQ
T5 sequence (Q9UJX2 whole entry): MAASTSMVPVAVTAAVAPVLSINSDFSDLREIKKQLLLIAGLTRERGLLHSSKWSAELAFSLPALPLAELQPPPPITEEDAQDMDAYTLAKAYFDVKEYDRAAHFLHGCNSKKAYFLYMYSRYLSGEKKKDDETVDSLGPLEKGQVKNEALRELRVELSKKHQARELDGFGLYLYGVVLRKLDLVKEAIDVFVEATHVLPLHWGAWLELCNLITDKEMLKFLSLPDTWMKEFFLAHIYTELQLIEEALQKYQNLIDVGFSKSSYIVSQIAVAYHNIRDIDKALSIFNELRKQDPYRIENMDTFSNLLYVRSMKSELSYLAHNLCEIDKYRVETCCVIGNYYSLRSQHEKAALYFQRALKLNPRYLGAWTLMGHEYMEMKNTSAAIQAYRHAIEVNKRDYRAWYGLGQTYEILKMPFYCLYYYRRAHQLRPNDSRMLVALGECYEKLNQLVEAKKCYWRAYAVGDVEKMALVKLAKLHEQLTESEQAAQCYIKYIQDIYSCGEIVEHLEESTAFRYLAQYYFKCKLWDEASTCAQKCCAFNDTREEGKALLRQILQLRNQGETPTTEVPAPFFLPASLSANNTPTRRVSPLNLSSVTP
T4 sequence (Q9UJX4 whole entry): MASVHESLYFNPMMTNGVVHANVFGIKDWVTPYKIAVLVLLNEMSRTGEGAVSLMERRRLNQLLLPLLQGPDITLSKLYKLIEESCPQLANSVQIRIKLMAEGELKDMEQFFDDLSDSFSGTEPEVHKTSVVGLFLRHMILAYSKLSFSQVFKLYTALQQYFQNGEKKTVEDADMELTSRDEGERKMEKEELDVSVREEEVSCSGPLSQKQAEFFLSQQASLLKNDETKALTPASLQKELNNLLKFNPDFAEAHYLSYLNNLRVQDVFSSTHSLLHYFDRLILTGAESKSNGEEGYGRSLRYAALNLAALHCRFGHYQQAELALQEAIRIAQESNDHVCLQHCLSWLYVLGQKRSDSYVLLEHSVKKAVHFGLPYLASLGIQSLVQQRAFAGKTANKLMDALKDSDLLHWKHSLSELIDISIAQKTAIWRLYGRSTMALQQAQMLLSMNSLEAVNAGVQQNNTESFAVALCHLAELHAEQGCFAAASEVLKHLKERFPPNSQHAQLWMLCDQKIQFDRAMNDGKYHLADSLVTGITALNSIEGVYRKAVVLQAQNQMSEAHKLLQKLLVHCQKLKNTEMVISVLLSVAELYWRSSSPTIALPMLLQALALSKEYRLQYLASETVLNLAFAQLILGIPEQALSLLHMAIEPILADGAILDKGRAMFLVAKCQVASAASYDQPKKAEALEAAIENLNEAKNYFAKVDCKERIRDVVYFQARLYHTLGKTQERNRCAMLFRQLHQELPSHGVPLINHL
T2 sequence (P30260 whole entry): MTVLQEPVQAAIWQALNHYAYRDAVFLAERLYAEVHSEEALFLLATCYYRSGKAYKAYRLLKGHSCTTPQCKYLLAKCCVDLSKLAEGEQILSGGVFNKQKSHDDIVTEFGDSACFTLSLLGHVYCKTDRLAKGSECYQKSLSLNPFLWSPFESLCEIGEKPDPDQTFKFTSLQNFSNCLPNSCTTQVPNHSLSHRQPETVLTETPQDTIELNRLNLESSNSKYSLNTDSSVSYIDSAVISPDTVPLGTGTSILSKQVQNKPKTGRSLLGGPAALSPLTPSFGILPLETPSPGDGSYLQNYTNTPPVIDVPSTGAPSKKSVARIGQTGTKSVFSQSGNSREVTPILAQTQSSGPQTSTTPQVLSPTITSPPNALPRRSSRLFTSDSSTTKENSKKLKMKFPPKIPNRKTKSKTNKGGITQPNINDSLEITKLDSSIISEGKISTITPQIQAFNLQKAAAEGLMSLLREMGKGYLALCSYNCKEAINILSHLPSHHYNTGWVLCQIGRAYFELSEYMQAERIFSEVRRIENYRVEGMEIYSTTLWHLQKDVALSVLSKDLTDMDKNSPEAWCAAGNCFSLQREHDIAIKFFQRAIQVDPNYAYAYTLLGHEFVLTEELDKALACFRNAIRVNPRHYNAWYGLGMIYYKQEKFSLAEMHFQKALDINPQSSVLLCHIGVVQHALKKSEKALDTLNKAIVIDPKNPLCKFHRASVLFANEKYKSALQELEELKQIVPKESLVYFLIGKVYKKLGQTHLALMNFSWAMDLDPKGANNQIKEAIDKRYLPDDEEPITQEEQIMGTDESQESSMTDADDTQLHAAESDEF
T6 sequence (Q9UJX3 1-297 limits assumed): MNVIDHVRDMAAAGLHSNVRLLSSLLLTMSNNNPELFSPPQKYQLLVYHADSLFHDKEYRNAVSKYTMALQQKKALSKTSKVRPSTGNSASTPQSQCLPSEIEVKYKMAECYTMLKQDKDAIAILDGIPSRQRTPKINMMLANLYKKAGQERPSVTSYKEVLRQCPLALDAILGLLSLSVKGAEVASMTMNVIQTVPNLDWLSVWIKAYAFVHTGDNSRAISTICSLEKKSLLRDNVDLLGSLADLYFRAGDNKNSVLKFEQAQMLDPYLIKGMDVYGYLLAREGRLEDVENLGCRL
T7 sequence (Q8NHZ8 whole entry): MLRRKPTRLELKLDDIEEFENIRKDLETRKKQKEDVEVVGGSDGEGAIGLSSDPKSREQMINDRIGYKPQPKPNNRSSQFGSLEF

As for CAVWSLSSCKPGFGVD [control peptide CAVWSLSSCKPGFGVD], the binding result in assay [1] and in assay [2] was “no binding” throughout.

B1: CDC20 C-terminal peptide CLRREREKASTSKSSLIHQGIR (peptide)
peptide: CLRREREKASTSKSSLIHQGIR
notes: Synthetic peptide; also called CDC20 C-terminus; CDC20 peptide
Consider B1, for which the binding result in assay [3] is “binds”; in assay [4], “no binding”; in assay [5] it was “no binding”.

B2: CDH1 C-terminal peptide CFSKTRSTKESVSVLNLFTRIR (peptide)
peptide: CFSKTRSTKESVSVLNLFTRIR
notes: Synthetic peptide; also called CDH1 C-terminus; CDH1 peptide
As for B2, the binding result in assay [3] is “binds”; in assay [6], “no binding”; in assay [4], “no binding”; in assay [5], “no binding”; in assay [7] it was “no binding”.

The values are drawn from patent EP1469082A1 (Boehringer Ingelheim International GmbH, dated 2004).
